# In patent US9234007B2, “RGD mimetic γ-AApeptides and methods of use” (UNIVERSITY OF SOUTH FLORIDA, priority 2012, dated 2016):
# Tests used:
# integrin αvβ3 = experiment: in vivo; design: species or system mice; details: mouse, iv; for Liver uptake, blocking group / Radioactivity in the blood, blocking group / U87MG tumor uptake, blocking: 10 mg/kg
# Method: (§1) PET scans at various time points post-injection (p.i.), as well as quantitative region-of-interest (ROI) analysis of the PET data, were performed as described previously.^14 Coronal and transaxial PET slices that contain the U87MG tumors are shown in FIG. 5A, and the quantitative data are shown in FIGS. 5B and 5C. […] PET scans were performed using an Inveon microPET/microCT rodent model scanner (Siemens Medical Solutions USA, Inc.). Each U87MG tumor-bearing mouse was injected with 5-10 MBq of the PET tracer via tail vein and 5 minute static PET scans were performed at various time points post-injection (p.i.). The images were reconstructed using a maximum a posteriori (MAP) algorithm, with no attenuation or scatter correction. For each microPET scan, three-dimensional (3D) regions-of-interest (ROIs) were drawn over the tumor and major organs by using vendor software (Inveon Research Workplace [IRW]) on decay-corrected whole-body images. Assuming a tissue density of 1 g/mL, the ROIs were converted to MBq/g using a conversion factor (pre-determined using a 20 mL centrifuge tube filled with ˜37 MBq of ^64CuCl2 as a phantom), and then divided by the total administered radioactivity to obtain an image ROI-derived percentage injected dose per gram of tissue (% ID/g).
# in vivo = experiment: in vivo; design: species or system mice; details: female, nude, mouse, iv, 10 mg/kg, total radioactivity
# Method: as §1
smiles,measurement,setting,value
"N=C(N)NCCC(=O)N(CC(=O)NCCN(CC(N)=O)C(=O)CC(=O)O)C[C@H](Cc1ccccc1)NC(=O)CCCCCNC(=O)CN1CCN(CC(=O)O)CCN(CC(=O)O)CCN(CC(=O)O)CC1 [^64Cu-γ-AA2, metal not drawn]",clearance route,integrin αvβ3,both hepatobiliary and renal clearance
same,"Liver uptake, blocking group",integrin αvβ3; 0.5 h,7.2±2.0 % ID/g
same,"Liver uptake, blocking group",integrin αvβ3; 2 h,6.1±1.6 % ID/g
same,"Radioactivity in the blood, blocking group",integrin αvβ3; 2 h,0.4±0.1 % ID/g
same,"U87MG tumor uptake, blocking",integrin αvβ3; 2 h,0.4±0.1 % ID/g
same,"Liver uptake, blocking group",integrin αvβ3; 4 h,5.3±1.3 % ID/g
same,"Radioactivity in the blood, blocking group",integrin αvβ3; 4 h,0.4±0.1 % ID/g
same,"U87MG tumor uptake, blocking",integrin αvβ3; 4 h,0.4±0.1 % ID/g
same,"Liver uptake, blocking group",integrin αvβ3; 24 h,4.0±0.6 % ID/g
same,"Radioactivity in the blood, blocking group",integrin αvβ3; 24 h,0.4±0.1 % ID/g
same,"U87MG tumor uptake, blocking",integrin αvβ3; 24 h,0.4±0.1 % ID/g
same,U87MG tumor uptake,integrin αvβ3; 0.5 h,0.9±0.3 % ID/g
same,tumor/muscle ratio,integrin αvβ3; 0.5 h,3.8±0.9
same,U87MG tumor uptake,integrin αvβ3; 2 h,1.0±0.2 % ID/g
same,tumor/muscle ratio,integrin αvβ3; 2 h,4.8±1.8
same,U87MG tumor uptake,integrin αvβ3; 4 h,1.1±0.2 % ID/g
same,tumor/muscle ratio,integrin αvβ3; 4 h,5.8±1.4
same,U87MG tumor uptake,integrin αvβ3; 24 h,0.7±0.2 % ID/g
same,tumor/muscle ratio,integrin αvβ3; 24 h,8.3±3.9
same,tissue uptake at 0.5 h,in vivo,0.5 ± 0.1 %ID/g
